Test results as given in the DeepSol protein solubility set.

Test: soluble on expression in E. coli; label from the status in PepcDB or PDB records

Row | Sequence | soluble on expression in E. coli
1 | MAGHVNGTCAPVIPKVGDEEDGVGQLVANLKEKGTNFVLLKKTPQILELQTILKDRSTNHSDFVFNADRLMRLVIEECLNHLPFTEHTVTTPTGFKYEGIQFNRGNCGVSLCRSGEAMEVSLRQCCRCIRIGKILIGDEQKVLYARLLPDITSRRVLLLYPTIGSGTTVCKAIEVLKEARVPDENIYLVSLFISPTGLKNITRKYPYITVVASDITSLYPNHFSTSYFGAV | not soluble
2 | MAGKCVFIVGAKRTAFGTFGGKLKGLSATDLGVVASQAALKHANVGADAVDHVIFGNVVASSRDGIYLSRHIGLKSGVPQNVGALTVNRLCGSGFQAVVNAAQAIKLGESNIVLAGGTENMSMVPFAVRDIRFGTALGKKYEFEDMLWDSLSDPYAKLAMGQTAEKLGAQYKVTRQEADEFALRSQTLWKKAQEAGVYKNEIVGITIKGRKGEESFEIDEHPRATTAESLAKLKPVFQKDGLVNAGNASGISDGAAALVVAGEDSVKSKNLKPLARVVAYSAVGCDPTIMGIGPAPAIREVLKKSGLKIGDIDIFEVNEAFAPQALAVQRELGIPMEKLNVNGGAIALGHPLAASGARISTHIVHELHRRNVKYGIGSACIGGGQGIAILFEKIEMKVLSKKKFFSEKNQKSANTSTQSRVSDANSPPPPPPHFTRSFLGL | soluble
3 | MAGLKRRASQVWPEEHGEQEHGLYSLHRMFDIVGTHLTHRDVRVLSFLFVDVIDDHERGLIRNGRDFLLALERQGRCDESNFRQVLQLLRIITRHDLLPYVTLKRRRAVCPDLVDKYLEETSIRYVTPRALSDPEPRPPQPSKTVPPHYPVVCCPTSGPQMCSKRPARGRATLGSQRKRRKSVTPDPKEKQTCDIRLRVRAEYCQHETALQGNVFSNKQDPLERQFERFNQANTILKSRDLGSIICDIKFSELTYLDAFWRDYINGSLLEALKGVFITDSLKQAVGHEAIKLLVNVDEEDYELGRQKLLRNLMLQALPLEHHHHHH | not soluble
4 | MAGPSLVEVAAAVLIRPDDSFLLACRPDGKPYAGYWEFPGGKIETGESPLQALARELDEELGITVRQATPWLTRTFSYPHATVRLRFYRVTDWHGELTPRERQQFAWQTAENITVSPLLPANTPILRSLALPSIYAVTRTVETDIEASLLSIGQTLGNGVKLLQIRQKAMSHDQLEHFSRTALQLARSYQATVLINENIPLAQTLQADGVHLTAAQLRSLHSRPAVNWCGASCHNEQELQRAERLGVDFVTLSPVQPTLSHPGAAALGWKEFAALIRDYPLPVYALGGLLPADLETAREYGAHGIAMMRSILEHHHHHH | not soluble
5 | MAGSVGEETEPEWIKRVKLEGAVPCLKPDDNCKNGWTTPSPDTFMVRGPKYFSDKVKIPAGDFLLKPLGFDWIKGPKKLSEILSYPSSRIRKVIDEEFQKDGTKPFVWAFNLQLPHKDNYSAVAYFVTTEPILEGSLMDRFLKGDDGFKKSRLKLIANIVKGPWIVRKAVGEQAICVIGRALSCKYVSGENFVEIDVDIGSSMVASAIVHLAFGYVTTLTVDLAFLIESQTEAELPEKLLGAVRFSELQTESATSIELSSSTSNDQWDQTTSERSSWWKSIGNGFSNLLNQDTANMNNTSHGDIQKDEHVQKQ | soluble
6 | MAHHHHHHMADQNPDLKVEEALKGADIKLLLIDFDGTLFVDKDIKVPSENIDAIKEAIEKGYMVSICTGRSKVGILSAFGEENLKKMNFYGMPGVYINGTIVYDQIGYTLLDETIETDVYAELISYLVEKNLVNQTIFHRGESNYVTEDNKYADFLQKMYSENRSIIIRHNEMLKYRTMNKLMIVLDPSESKTVIGNLKQKFKNKLTIFTTYNGHAEVTKLGHDKYTGINYLLKHYNISNDQVLVVGDAENDIAMLSNFKYSFAVANATDSAKSHAKCVLPVSHREGAVAYLLKKVFDLKK | soluble
7 | MAHHHHHHMADVDEWRGASFKQEEDHSEATTSLLEKINATTIPVLLRSTNKSLQDLVDELLTLEKIARLGGDALSTQRLAVEVIRVYRVQGDYAKMLLVLEMLMRKRGQTKMTQSAMIAECAVMISDASLPKESRREVLERVVHLTDSRIHVELEHARFAIDLAKLMESEGQKRAACDLLSGLHVETITNMPRAEKLDALNCLIRLCLELEDYEHTPLVSRRINHRALARAESREAKLTYFELMRHYYTQRKSYFNVARCWYETYLTETEEGAKLAALSSMAVHYLIAEHATPKALEDLAECTAFSPATYFAERNAAIQGITTKLQKQLEDIPQLQYLLQRFTSIELIREKVAREVETLCANHPQLAGHEDRQLLLRSRCSEHDLLVVSRFYRRLRLDRLAQLVGLTPEHTEEFLMMMVASKTLYAKMDRVDGLVVFEAKKNATEVINGWNEAVERSVALLDKASHLIVKERMLHNISAARAQQAVTL | not soluble
8 | MAHHHHHHMAERSSTLVINEAKTKNRLSDSLRSPTDRTREHLISHRNFSSVLESAADCTSASSTPDLQEEEDVQHKRALDLFSATPHSGEFSPLIEWLLRRGERGDVGAPTASQKDGDEYTQASFFNEDYIMNLCAAATAVLGKEPALLDLEVVAHDTLVVVGDIHGQFQDLYTSVLCQQYDRRRCNPEGRDCRFLFMGDYVDRGPHSLEVVLLLLALKVEYPTLVYLTRGNHEEEKTSRVYGFLTEATSSLGAAAGTAVWSAVNKVFLDLPLAAIVQTLYMRFFVTHGGLSPGLQNVEVICALERHNYSCGNITAAEDDLIAGLLWSDPTNEVAMYKRNPRGCGFLFGPSASNRFCADNNFDFICRAHQVAMEGYMWTHNDRVLTVFSAPNYCGVNRNKGAVLLIKGYSRRPIVQQYDSAEKSEAAPARKTDFAFADMFA | not soluble
9 | MAHHHHHHMAKLSKQQKKQMYIEKLSSLIQQYSKILIVHVDNVGSNQMASVRKSLRGKATILMGKNTRIRTALKKNLQAVPQIEKLLPLVKLNMGFVFCKDDLSEIRNIILDNKSPAPARLGVIAPIDVFIPPGPTGMDPSHTSFFQSLGISTKIVKGQIEIQEHVHLIKQGEKVTASSATLLQKFNMKPFSYGVDVRTVYDDGVIYDAKVLDITDEDILEKFSKGVSNVAALSRATGVITEASYPHVFVEAFKNIVALIIDSDYTFPLMENIKKMVENPEAFAAVAAPASAAKADEPKKEEAKKVEEEEEEEEDGFMGFGMFD | not soluble
10 | MAHHHHHHMAPPQTTLSLDANLRNTLRSLLIERLCSPTQPLPAKQLYDELTNRSRLVEEFHFSKTSRRITRQRLALQFLRRYNVLLHGLFFYSEGTRTWNTTTEFHRLAILGESVLLTEVRTRLLKLFPVMPYAAYVQSLPHMVGEEALAAAFDRYEMQNIVGAKPSNQRSGTPLTRMQKSHMLCAIVAEMYWFTARTKPTDLTHNNALFPPSDVLILHVLSTHLLENLPAELIYNVVEPIVADIKRVWVNEPMSLPSQLRLTPRTVGALSLNAVPVDLRYTAKEDAVMSLQKKHEEAHRRQHALTREPDHSCVKSFMRPSCNYRIFDGPRYQILSSDNRVAPLPLAQERSSLPASAVCTVVDDADSAARAMELAKMAEQW | not soluble
11 | MAHHHHHHMARRLQQAWRAFAARRERRYRAAAVAQCARKRLEREEVWQLVWQDQFTELDMLCMLERQYIEEQQHVKRVRLYKYLCDPNGATNDDCGTQTPGAFNADADLLKWATLYDE | not soluble
12 | MAHHHHHHMASADVVSTWVCPICMVSNETQGEFTKDTLPTPICINCGVPADYELTKSSINCSNAIDPNANPRNQFG | soluble
13 | MAHHHHHHMASAEAEVAADMSAMWRYAEEARAGSSALSDLTYAERQAMLRAVAKALQTNEARILEANREDMVAAKANATADPLLRRLELTPSKLATLIEGISTLADMPDPIGQILSARELDNNLLLLKQTAPIGVVLVVFESRPESLPQIASLALCSGNGLLLKGGREGEHSNAVLHDLIVSAVESSTQGRVPRGVIGLVTNRADVYSLLQLDAHIDLVVPRGSNAMVQNIQRSTRIPVLGHADGICHVYVHKDADVDAALAVAIDAKLNYPAACNAAETLLLHRDLLHSPAHGTTAAQFLVNGMTEAGVSFYAGPQAIAAGLASELAASLHMEYGDAHMTVEVVDDLAAAIAHVNRHGSHHTDTILTVDKAAAAEFQRRVESACVFHNCSTRFADGFRFGLGAEVGISTARIHARGPVGVEGLLTQKWVLKPMGSLPQATEDGAAAAAANAPYATVAEFQKGQRVFTHKDVTRKLQDEAAGLRLQA | not soluble
14 | MAHHHHHHMASMNHPDELEGSATSGVLCPLTAYEEVPPTKTRSQIIKEQLLDLENYSFEIPDRPEGDPSGKLAYLDMCEQLHKESFMKFPTHSVANSLCEGKESLDVSFFALGKKGSAALAAALRVNLTIRKLSLLRNHITPSGAMEIARALSETKVVSDLDLSENLLGLTDADDIQGGAVVAEFLKPGNVLKTLSLRDNKLSDQHVTEFAEAAIDNTELHSLDLSFNRIGYIGAIELANILSKNADLQEINLEWNQFQTIGSRHILAEGLLLNNTIKRFNMSWNGLDDACGVLVGRIISENDIEEIVVAHNRIGPAGAEAIAKGLLNTSALTTLILDDNPMQNEGCAAILRVVGEAATLTNVSLQQCRCDSSVVLEADRVMKEVRPDLDIRISEGCCAKVVM | not soluble
15 | MAHHHHHHMATASPSLSSNCFIDAATYFESRRGRRTFPERNASQILLGDASANSPIEEEEGLVRRQAQASAPVAWQQQQQQRHQQMRPTRRPRGPGIAFAARIEASGFPAAASRRSACADVVPECLYQYDTSELRTHKRPAQMPNRVKQCDRNLQLFLRPEEQVVRSAAAAVMLGESRDGQLSYSRYPSSQAHEHSKDPRMTADAIEASSSPFSDSAPHDQAMMTDRRSCLPYAPAAELDDSLLLKESLSSDRLRLLEHLYQRERSRLRGASRSVERDVGAVAEEDARAWHGQAPVSSLPWGTTVLPFRHGDSADVAANLPSLRRRAERSSVRRDDGDGAVHAHPLQGRDWQPWERKYACEAHPVTPRTRSSFHASSQIADSNERSDNDNDRNGGVDYTHAKSFGNATCSANWRCASASHRRRVTGSYDDFSDSTEARNEPPKHTTRIGSRMAMADAAPRVPHISAWFAPLRNDRVARQAHHTRSADHARASHSLRGEKERQAGQLQRHISAASPSVQGSSSSTAAGARPVETSPAASARTQATVTLSDVCTHQPLRAPSLQQRQHGKLAGSAASSPLFPTSSARVQGRDDAALTLRDVCGALNTAAVVM | not soluble
16 | MAHHHHHHMATISRRDGRTAREMRGKELRTSDLSQFDGSAWYSQGLTAVTVAINGPTAARQENYRRCTTCIHVNRAARIPQEGGTGRLIMMERRERERCEDGELKQFLTSLVEAIVCLDRFPRCVLEAHVTVLMDDGALFAVASNAIMCALLDAGVPCRSTIAAVSLIMCNPEASGNEGEPEIFLDPTAVEESTDEVRSYASATFVLTNTGGEAVLASRVQARPRSSAYSRPITPKDLSRMFALAAKAAETLFVFFRNCSMALE | not soluble
17 | MAHHHHHHMAYVFDKITKTVTIYMGNTKSKIVLGGLWQRGMKGYIIYDVARQGTPPDTNFAPTTGWSMILVSSPNVRNYDGWATQVKASRIIMNCPDEMDVKAMCAWMKRGLDTDKQAGYWKMVEKHMEKVGPIPRHIFDADEYGERTWDATSALRWINIGEQRKYFTKGGEQWYSEDLSHKLLKIVRVREDGAFEDLSNAPICDYLGVLTVSRLAKALSPNDILFLVLGMKNVVQSAALKKYGLNVFLSVEFVTSIVTDLKELQPPSPSEPRSSVLTLNPHGYPTEAAAITELKFIDRPQELKYRVLYIPTFPTFPLVDGFFFVDSPRKTLVGLQMTTASAHHTTASTVRQFTECMAAYFDDWDEFSRDMSWDMIYIQHAASKPMKKRQKCLYVDSNNKTDAEKKIVAFWNGKVHQYQFVLTTDF | not soluble
